Earlier results as cited in patent US20150182632A1, “ANTI-INTERLEUKIN-1 (IL-1) ANTIBODY USED AS A TARGETING AGENT TO TREAT ARTHRITIS AND OTHER DISEASES” (priority 2012, published 2015).

Molecular target: T1, IL-1 (Homo sapiens, UniProt P01584)
T1 construct: Patients with arthritis and other inflammatory diseases produce IL-1 which is present in the blood; host or cells: endogenous IL-1 of RA patients (in vivo)
Settings: several intravenous injections

clinical response of RA patients: clinical improvement
Substance: ACZ885: anti-IL-1 monoclonal antibody
